Source: US20240026407A1, “MODIFICATION OF SAPONINS” (GLAXOSMITHKLINE BIOLOGICALS SA, priority 2020, published 2024)

What was measured:
Assay type in all cases: biochemical, Quillaja saponaria
[1] = Experiment 4-2: screening of glucosidases for deglycosylation with purified QS-18 (1 mg/ml) at pH 6 and 30 deg C; conditions: pH 6, 30 degC, 18 hrs, clarified lysate, LCMS/MS
Procedure, shortened: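 Clarified lysates of glucosidase-expressing cells in 100 mM potassium phosphate pH 6 were incubated 18 h at 30 °C with QS-18 at 1 mg/ml final. Reactions quenched with MeCN; deglycosylation activity determined by LC-MS/MS.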

[2] = Experiment 4-3: screening of glucosidases for deglycosylation with QS-18 in crude bark extract (1 in 2000 dilution) at pH 7 and 30 deg C; conditions: CBE 1 in 2000 dilution, pH 7, 30 degC, 1 h; % conversion of QS-18 by LCMS/MS
[3] = Experiment 4-4: screening of glucosidases for deglycosylation of QS-18 in crude bark extract (1 in 20 dilution) to QS-21; conditions: CBE 1 in 20 dilution, pH 6, 25 degC, 18 hours; % conversion of Middle Peak by UV HPLC
Procedure, shortened: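 Clarified glucosidase lysates were incubated with pH 6 crude bark extract (1 in 20) in potassium phosphate buffer pH 6 for 18 h at 25 °C with shaking, then quenched with MeCN. UV HPLC with MS/MS-supported peak identity; activity is % conversion of the extract's Middle Peak (QS-18 family) toward the QS-21 peak.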

[4] = Experiment 4-1: screening of glucosidases for deglycosylation with purified QS-18 (0.04 mg/ml) at pH 7.5 and room temperature; conditions: pH 7.5, room temperature, 20 h, clarified E. coli lysate, QS-18 2150 to QS-21 1988 by LCMS/MS
Procedure, shortened: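 Candidate glucosidases expressed in E. coli BL21(DE3) (pET24b+, autoinduction, 20 °C for 20 h); clarified lysates in 100 mM potassium phosphate pH 7.5 incubated with QS-18 (0.04 mg/ml final) 20 h at room temperature. Quenched with MeCN, analysed by LC-MS/MS for % conversion; hits >3 S.D. above negative control.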

Molecule	Expt 4-2 % conv [1] [%]	Expt 4-3 % conv [2] [%]	Expt 4-4 % conv [3] [%]	Expt 4-1 % conv [4] [%]
101 (protein, listed as Meira miltonrushii) MSAPIDPQALLAQLTLEEKIQLTAGADLWRTVAIERLKIPYIKLTDGPIGARGGGDFHDSTPSTLFPSPSCLGSTWDTKLAYEMGKQIALDGIEKQCHVILGPTINGQRDPRAGRFFESYSEDPTLMGFLASHWVQGVQSCGVGATMKHFVANEAEYDRRNNSSDVSIEALREVYLEPFRIIMADMQRKASAHDDPFKFQPACVMTAYNRVNGVSSSENDAMITDILRKEWGFDGLVMSDWFAMHANAFNATDLEMPGPTIFRTIEKTIDTIKKGDEEGKKMAKDLDRCVLKVLELVKKVHKLGYQKSVADEVEKSVPIEQVGPAIRKIGAEGAVLLKNDNDILPIIPKKDLKILCVGAPWIEAVQSGGGSANLTPQKVMQPLSTFKDALKNEKGGQDVTVNHHNGIGIHNFVKPLEQSIKLDFLTGRQPGKGEVVASTTGQKATLSTMLPKPKEVPWNDYWVRGSLDLEPVKKDCQLRFGLLGLGTITAYLTIDGDKSKQSIWNFDGETDLFESIVNPLRNWQENVITVKAGQKIQIEAHFVPRLVGKEHGDAKYGGFQIGMEEVDDEDALIAEAVQQAKEADLTVIMTAVGKDWESEGFDRPTIFLPRRQDDLVNQVTKACPGKTVILNLTGSVVEMPWRNDATGIVQCWYGGQEGAVSLSDILLGRGDAPASGRLAHVWPARIEDHPSGVDEAYFPGTHLPNDKEGPHTEYVEGRLVGYKYYNKNKNANQPAFHFGEGLGGYTTFATEGPVVKGSTKINKSSLPLSLTVKSTNKGKRSGKEVAQIYLRPHVPLSDAKDEPIQRLAGFAILRPAPGQSEEAEIQLYQETFSHWDEKSRSWQVKQGDYDLVLARSARYGEELGKATITIDQSWSWTGTGVN	1.0	1.8	<3	28.2
207 (protein, listed as Bifidobacterium dentium) MSESTYPEVNDLTLEEKASLTSGGDAWHLQGVEAKGIPGYMITDGPHGLRKSLASSTGETDLNDSVPATCFPPAAGLSSSWNPELIHQVGEAMAEECIQEKVAVILGPGVNIKRNPLGGRCFEYWSEDPYLAGHEAIGIVAGVQSKGIGTSLKHFAANNQETDRLRVSANISQRALREIYFPAFEHIVKEAQPWTIMCSYNRINGVHSAQNHWLLTDVLRDEWGFEGIVMSDWGADHDRVASLNAGLNLEMPPSYTDDQIVYAARDGRIQPEQLDRMAQGMIDLVNKTRAAMSVEGYRFDVDAHDEVAHQAAVESMVLLKNDDAILPVASDAKVAVIGEFARTPRYQGGGSSHITPTKMTSFLDTLAARGVDAKFAPGFTLDLEPADAAMAADAVEVAKGADVVLMFLGLPEAAESEGFDRETLDIPAKQVELLEAVAAENKNIVVVLSNGSVVSVAPWADNAKGILESWLLGQAGGPALADVIFGNVSPSGKLAQTVPMDINDDPSMINWPGEEGHVDYGEGVFVGYRYYDTYDKAVDYPFGYGLSYATFEVSDVKVAKTGANTASVSAVVKNTSDVDAAETVQVYVAPGKSAVARPIHELKGFRKVFLKAGESAEVSFDLDERAFAYWSEKFDDWHVESGEYAIEVGTSSRDIAGTGVVELDGDGKAEPLTEWSTFGEWSDDPVGSKIVASVYAEGEAGNLPKMPDNDMMRMFLRSMPINSMPMLMSEGGKKITAFMLDEYAKVTE	4.4	0.2	<3	27.4
5 (protein, listed as Actinobacteria bacterium) MSELVENLILRLTLEEKATLTSGTDMWNAHGIDRLGIPGLKVSDGPVGVRGERWVGTTSACTPCGTALGATWNMELIEQVGVVLGEEAKSKSVDIVLAPTVNLHRNPLAGRNFECFSEDPFLTGLAATAIINGIQSAGVGACVKHFVANDSEYQRHTISSQVSERVLRELYLLPFEMVIRDTDVVAVMSGYNRLNGTYCAEHDWLLNQILKQEWGFDGLVMSDWWGTMSSASAAGGLDLEMPGPAKYLGPQLAQMVADGTLDATALDEMARRILHVSERLGLLAHSSPATPSRAAERSEDLPTHQAILRSAAEQAVVLLTNRLIEGQTVLPLDVSSLRHVAVIGPSADTAAVLGGGSAAVNPHYAVSILQGLQEALPSHVKVTHEIGVHASHSAPPIDSRCLRSAVQPDKPGLDVEYFANREFAGTPACVEHAAQPRLVWMGSEAASGVATNNLSVRVSGTFIARSTGTHTFALVTGGTGGRVLLDGESILDNYTGQESGTAFFGLGSSEILAEVYLEQGEERGIIGEFTGYEGMDVAAFLIGHREPLAADGIERAAKAAAEAEVAIVVVGLDQDSETEGEDRKTISLPGEQDALLRAVIAANPRTVVLVNAGSVVDLAATEGAAAIAQTWYLGQETGNAVAAVLTGSVDPSGRLPTTFGKKVQDWSSHLNYPGEFGEVLYGEELFMGYRGFDQQQIEPAFCFGHGLSYTSFDWSGATLSTSSLSQTELLDGAQFSLSAEVTNTGDTSGYEVLQCYVQRDQSQSGRPEQELCGFVKVHLSPGQTATVNIPLNFRSCAVWDQPSRSWLVHPGEIKFRLSSSSRDTRSTAAFQVTT	16.6	1.4	<3	70.8
169 (protein, listed as Bifiguratus adelaidae) MASSRVTELLANLTLEEKVYLLSGSDNWRTFPVPRLGIPAVKVTDGPIGARGDSFNTGQNAACFPAPIAMASTWDTDLLLKVGSALGEEAKSKAAQVLLAPTINMHRSPLNGRNFECYSEDPFLTGKMATAFVSGLQSQGVAAAVKHFACNDSEFERDSISSEITERPFREIYLRPFEMVVRDADPWCIMTSYNKINGVFASENPKLLKEILRNEWNWKGMVMSDWFGVKSTVPSVLNGNDLEMPGPPAWRGEKLLAAIKQGELKEEDLNESVQRVLSFVERVGKFEDPEERPETYLAKPEITELIRNVSADSIILVKNEQSLPLNKDALKSVAIIGPNAKTAVTMGGGSSKVQAPHEVTPYEGIAAALGEDVDIRHSVGAYTHKLIPQLDDRLQTPDGELGYIMDVYESKNFGETPTDSKVLNNTRVIIHDAGFKDVDFRSFSAKVRARYTAKHTGPHTFGIASVGLSKLYVDGKLVIDNWTSQVRGDIFFGFGSREEKAQYDMIEGQTYEILIDYMTGHELMAMLRFGLLEPLASDVVEQAVKVAEGTDVAVVVVGLNNEWETEGYDKTELELPGGQNELIEAVANVNKNTIVVVQCGSPVVMPWIDKVSGVIVAWYGGQETGHSIADVLFGKVNPSGRLTQTFPKRLEDNPAFDNYPGENGKVIYGEGLFIGYRYYQRRKVDVFLPFGFGLSYTTFDYGNIKLDNSELDPQAHITVSVDVTNTGSIAGKEVVQVYVHDNHPRLSRPLAELKGFSKVELAPGETRTVQITLDKHAVAFYDDKEAVWVAEAGEFELHIGSSSADIRGKVPFTVTKSLSWTF	2.1	2.4	<3	19.8
